Measurements as given in patent US20210269531A1 (TSINGHUA UNIVERSITY, published 2021).

T1: P75 (Homo sapiens (Human), UniProt P08138 29-250)
T1 construct: also called P75 neurotrophin receptor; P75NTR
T1 sequence: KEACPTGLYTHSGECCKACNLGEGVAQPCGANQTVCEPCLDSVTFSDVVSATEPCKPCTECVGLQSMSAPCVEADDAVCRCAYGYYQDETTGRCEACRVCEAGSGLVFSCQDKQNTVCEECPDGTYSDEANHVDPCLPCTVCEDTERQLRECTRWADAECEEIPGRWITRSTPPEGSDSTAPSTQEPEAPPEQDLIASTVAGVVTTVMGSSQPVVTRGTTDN


Columns and labels:
[1] = biological target: human TrkB on CHO cells (hTrkB-CHO cells) (human) (UniProt Q16620); assay: cell-based or functional assay
Chain of human TrkB on CHO cells (hTrkB-CHO cells) (human) (Q16620 32-822): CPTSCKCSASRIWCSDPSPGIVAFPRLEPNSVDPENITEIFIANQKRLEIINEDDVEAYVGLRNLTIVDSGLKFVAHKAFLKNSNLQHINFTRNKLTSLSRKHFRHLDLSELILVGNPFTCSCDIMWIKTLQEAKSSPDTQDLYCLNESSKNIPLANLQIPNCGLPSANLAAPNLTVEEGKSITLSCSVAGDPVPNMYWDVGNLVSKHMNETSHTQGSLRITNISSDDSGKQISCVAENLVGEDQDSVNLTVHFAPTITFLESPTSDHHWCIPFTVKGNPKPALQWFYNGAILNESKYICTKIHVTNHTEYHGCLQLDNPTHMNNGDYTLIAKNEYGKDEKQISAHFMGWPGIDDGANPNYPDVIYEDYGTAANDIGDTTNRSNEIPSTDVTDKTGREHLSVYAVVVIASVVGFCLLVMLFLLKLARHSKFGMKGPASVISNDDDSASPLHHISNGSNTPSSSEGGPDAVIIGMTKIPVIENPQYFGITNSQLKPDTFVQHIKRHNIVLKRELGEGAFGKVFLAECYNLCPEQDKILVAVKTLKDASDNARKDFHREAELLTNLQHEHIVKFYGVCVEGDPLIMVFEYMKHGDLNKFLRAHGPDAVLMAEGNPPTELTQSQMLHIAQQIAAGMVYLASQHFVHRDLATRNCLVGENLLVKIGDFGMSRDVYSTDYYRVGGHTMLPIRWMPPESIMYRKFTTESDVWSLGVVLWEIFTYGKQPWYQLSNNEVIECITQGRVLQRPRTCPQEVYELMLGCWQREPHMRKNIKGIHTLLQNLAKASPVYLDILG

[2] = biological target: T2, TrkB full length (FL, WT) conjugated with GFP, expressed in 293T cells (UniProt Q16620 32-822); assay: immunoprecipitation of GFP-tagged full-length and truncated TrkB from 293T lysates; binding domain
T2 construct: whole, on cells; The protein stood in cell lysate, not on whole cells; the numbering of the truncation (366-822) fits human TrkB; not shown: GFP
T2 sequence (Q16620 32-822): as above
Protocol: Cell were washed by cold PBS for 3 times and were lysed in buffer containing 50 mM Tris-HCl (pH 8.0), 250 mM NaCl, 1% NP-40, 0.5% deoxycholate, 0.1% SDS, and protease inhibitors (4693132001, Roche) (Roche Diagnostics) for 20 min on ice. After centrifugation to remove insoluble material, the proteins in lysate incubated with target protein over night at 4° C. 20 μl Protein A beads (sc-2003, Santacruz) were added to the protein mixture. After these mixture incubated for 4-5 h at 4° C., we washed beads for 3 times with lysis buffer. Then the supernatant was removed and 20 μl loading buffer was added to the deposit beads. The beads coupled proteins were denatured and uncoupled by 95° C. heat for 10 min.
Five extracellular domain truncated TrkB constructs were designed as shown in FIG. 2A and transfected to 293T cell for expression respectively. The lysate were collected. Immunoprecipitation was used to test the antibodies that cannot bind to truncated TrkB conjugated with GFP (see FIG. 2B). […] The others such as TrkB-agoAb418 antibody may bind to D5 domain. Δ1 lacks D1 domain (represented by Cys 1), Δ2 lacks D1 and D2 (represented by LAM) domains, Δ3 lacks D1-D3 (represented by Cys 2) domains, Δ4 lacks D1-D4 (represented by Ig1) domains, and Δ5 lacks D1-D5 (represented by Ig2) domains. “TM” represents transmembrane domain, “C” represents control (blank, empty vector). FL represents full length gene (WT).

P75 = biological target: T1, P75; assay: ELISA on coated P75, antibody at 10 nM, 1 nM and 0.1 nM
Protocol: (§1) TrkB agonist antibodies can bind to TrkB specifically but not bind to TrkA, […], TrkC or P75 in ELISA assay. Data of exemplary antibodies TrkB-agoAb104, TrkB-agoAb202, TrkB-agoAb203, TrkB-agoAb303, TrkB-agoAb1104 and TrkB-agoAb2908 are shown in FIG. 1A-1F. 50 μL of […] protein was coated on each well of the plate, and 50 μL of 10 nM, 1 nM or 0.1 nM antibody was added to perform ELISA assay.

TrkA = biological target: T3, TrkA (Homo sapiens (Human), UniProt P04629 33-423); assay: ELISA on coated TrkA, antibody at 10 nM, 1 nM and 0.1 nM
T3 construct: also called Tyrosine Receptor A
T3 sequence (P04629 33-423 limits assumed): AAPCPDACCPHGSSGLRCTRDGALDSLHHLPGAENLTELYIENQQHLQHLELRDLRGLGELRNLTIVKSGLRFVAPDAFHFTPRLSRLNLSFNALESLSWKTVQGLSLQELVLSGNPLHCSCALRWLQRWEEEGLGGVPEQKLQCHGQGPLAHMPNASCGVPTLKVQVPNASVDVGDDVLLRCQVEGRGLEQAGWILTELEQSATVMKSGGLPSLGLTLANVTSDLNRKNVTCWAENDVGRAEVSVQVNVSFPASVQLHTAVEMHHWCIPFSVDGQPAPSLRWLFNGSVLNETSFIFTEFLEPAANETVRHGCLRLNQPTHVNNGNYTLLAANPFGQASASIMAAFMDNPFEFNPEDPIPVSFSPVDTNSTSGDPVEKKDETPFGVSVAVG
Protocol: as §1

[3] = biological target: T4, human TrkB (recombinant protein coated in ELISA / immobilised in Biacore) (human, UniProt Q16620 30-430, limits assumed); assay: Biacore T200 SPR, target protein on CM5 chip, antibody in 7 dilutions as fluid phase
T4 construct: also called target protein; antigen
T4 sequence (Q16620 30-430 limits assumed): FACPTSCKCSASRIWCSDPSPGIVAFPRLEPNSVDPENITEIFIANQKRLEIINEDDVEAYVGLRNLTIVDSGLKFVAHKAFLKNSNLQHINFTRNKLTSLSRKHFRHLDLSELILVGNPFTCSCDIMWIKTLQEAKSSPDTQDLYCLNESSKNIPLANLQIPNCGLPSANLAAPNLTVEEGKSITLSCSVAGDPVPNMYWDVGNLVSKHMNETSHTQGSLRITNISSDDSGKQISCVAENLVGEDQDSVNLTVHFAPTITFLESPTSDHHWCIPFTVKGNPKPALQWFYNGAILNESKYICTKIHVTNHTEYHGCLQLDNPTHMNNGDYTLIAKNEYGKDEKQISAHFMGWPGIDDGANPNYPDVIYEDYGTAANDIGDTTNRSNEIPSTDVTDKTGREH
Protocol: Wash CM5 chip in PBS with sonication. Replace the buffer of candidate antibodies and the target protein with the same PBS. The target protein was diluted to 1 μg/μL as the solid phase and the candidate antibodies were serial diluted to 7 dilutions as the fluid phase. After obtaining the signal, Biacore Evaluation Software was used to create fitting curves. ch2<Rmax/10 indicates good confidence level.
Biacore was used to analyze the affinity of antigen-antibody interaction.

[4] = biological target: T5, human TrkB on CHO cells (hTrkB-CHO cells) (human, UniProt Q16620 32-822); assay: cell-based or functional assay
T5 sequence (Q16620 32-822): as the sequence (Q16620 32-822) above

[5] = biological target: T5, human TrkB on CHO cells (hTrkB-CHO …); assay: cell-based or functional assay; remark: listed apart in the source
[6] = biological target: T5, human TrkB on CHO cells (hTrkB-CHO …); assay: cell-based or functional assay; remark: listed apart in the source

binding result [2]	binding result (P75)	binding result (TrkA)	Molecule	further results
–	–	–	brain-derived neurotrophic factor (BDNF) (from UniProt P23560 129-247) (ligand)	EC50 of TrkB Try515 phosphorylation, Alphalisa, hTrkB-CHO cells treated 30 min [1]: 1.39 nM
binds	–	–	TrkB-agoAb5702 (antibody, IgG1, V domains shown) VH: DVQLVESGGGLVQPGGSRKLSCAASGFTFSSFGMHWVRQAPEKGLEWVAYITSGSNTIYYADTVKGRFTISRDNPKNTLFLQMTSLRSEDTALYYCARDGYFLDALDYWGQGTSVTVSS VL: DVQITQSPSYLAASPGETITINCRASKSISKYLAWYQEKPGKTNKLLIYSGSTLQSGIPSRFSGSGSGTDFTLTISSLEPEDFAMYYCQQHNEFPLTFGAGTKLELK	–
binds	–	–	TrkB-agoAb6916 (antibody, V domains shown, Mouse monoclonal antibody) VH: QVQLQQSGTELMKPGASVKISCKAAGYTISSYWVEWVKQRPGHGLEWIGEILPGGGSTNYNEKFKGKATFTADISSNTAYMQLSNLTSEDSAVYYCASSDYWFAYWGQGTLVTVSA VL: QIVLTQSPAIMSASPGEKVTMTCSASSSINYTHWFQQKPGTSPKRWIYDTSKLASGVPVRFSGSGSGTSYSLTISSMEAEDAATYYCHQRSSYPWTFGGGTKLEIK	–
–	no binding (tested: 10 nM)	no binding (tested: 10 nM)	TrkB-agoAb2908 (antibody, IgG1, V domains shown) VH: QVQLQQSGPELVKPGASVKISCKASGYTFSSSWMNWVKQRPGQGLEWIGRIYPGDGHTNYNGKFKGKATLTADKSSSTAYMQLTSLTSVDSGVYFCARSGYGYGFDCWGQGTTLTVSS VL: NIVLTQSPASLAVSLGQRATISCRASESVDNYGNSLMHWYQQKPGQPPKLLIYLASNLESGVPARFSGSGSRTDFTLTIDPVEADDAATYYCQQNNEDPPWTFGGGTKLEIKR	–
binds	no binding (tested: 10 nM)	no binding (tested: 10 nM)	TrkB-agoAb1104 (antibody, IgG1, V domains shown) VH: QVQLQQSGAELARPGASVKLSCKASGYTFTRYWMQWVKQRPGQGLEWIGAIYPGDGDTRYTQKFKGKATLTADKSSSTAYMQLSSLASEDSAVYYCAGSGLGRAWFTYWGQGTLVTVSA VL: DIQMTQSPASLSASVGETVTITCRSSENIYSYLAWYQQKQGKSPQLLVYNAKTLAEGVPSRFSGSGSGTQFSLKINSLQPEDFGSYYCQHHYGPPYTFGGGTKLEIK	–
binds	–	–	TrkB-agoAbB901 (antibody, IgG2, V domains shown, also called TrkB-agoAb901) VH: EVKLVESGGGLVQPGGSLKLSCAASGFDFSRYWMSWVRQAPGKGLEWIGEINPDGSTINYTPSLKDKFIISRDNAKNTLYLQMSKVRSEDTALYYCARGNYYGSSLAWFAYWGQGTLVTVSA VL: DIQMTQSPASQSASLGESVTITCLASQTIGTLLAWYQQKPGKSPQLLIYAATTLADGVPSRFRGSGSGTKFSFKISSLQAEDFVSYYCQQFYSTPYTFGGGTKLEIK	–
–	–	–	TrkB-agoAb203 (antibody, V domains shown) VH: DVKLVESGGGLVKPGGSLKLSCAASGFTFSSYTMSWVRQTPEKRLEWVATISSGGDYTYFPDSVKGRFTMSRDNAKNALYLQMSSLKSEDTAMYYCTRESGRGDFDYWGQGTTLTVSS VL: DVLMTQTPLSLPVSLGDQASISCRSSQNIVHSNGNTYLEWYLQKPGQSPNLLIYNVSNRFSGVPDRFSGSGSGTDFTLKISRVEAEDLGVYYCFQGSHFPWTFGGGTKLEIT	Kd [3]: 0.0529 nM; in vitro half life (T1/2) from the time course of TrkB phosphorylation, Alphalisa, cells treated at EC50 [4]: > 24 h; EC50 of TrkB Try515 phosphorylation, Alphalisa, hTrkB-CHO cells treated 30 min [5]: 2.84 nM
–	no binding (tested: 10 nM)	no binding (tested: 10 nM)	TrkB-agoAb303 (antibody, V domains shown, Mouse monoclonal antibody) VH: DVKLVESGGGLVKPGGSLKLSCAASGFTFSSYTMSWVRQTPEKRLEWVATISSGGDYTYFPDSVKGRFTMSRDNAKNALYLQMSSLKSEDTAMYYCTRESGRGDFDYWGQGTTLTVSS VL: DVLMTQTPLSLPVSLGDQASISCRSSQNIVHSNGNTYLEWYLQKPGQSPNLLIYNVSNRFSGVPDRFSGSGSGTDFTLKISRVEAEDLGVYYCFQGSHFPWTFGGGTKLEIT	Kd [3]: 4.02 nM; in vitro half life (T1/2) from the time course of TrkB phosphorylation, Alphalisa, cells treated at EC50 [4]: > 24 h; EC50 of TrkB Try515 phosphorylation, Alphalisa, hTrkB-CHO cells treated 30 min [5]: 1.33 nM; EC50 (read off the curve) [6]: ~1 nM
